The subject of this data set is anti-MPT64 antibody (purified rabbit antibody to recombinant M. tuberculosis H37Rv MPT64) (rabbit). As to the kind of experiment: ELISA. As to conditions: 20 mM Hepes pH 7.35, 120 mM KCl, 1 mM CaCl2, 1 mM MgCl2 ([…]. (In an ELISA, binding on a coated surface is turned into a signal by an enzyme label.)

For “GGGAGCTCAGAATAAACGCTCAAAAACGCTCAAGAGGCCCGGATCTTCGACATGAGGCCCGGATC [MPT64-A1]”, the binding signal was found to be 1.62 OD450.

These data come from paper PMC3410803.
